Measured values: patent US20200268847A1, “Methods of Treating Newly Diagnosed Multiple Myeloma with a Combination of An Antibody that Specifically Binds CD38, Lenalidomide and Dexamethasone” (Janssen Biotech, Inc., priority 2019, published 2020)

Columns and labels:
[1] = tested on: patients with newly diagnosed multiple myeloma ineligible for HDC and ASCT; conditions: in vivo
Description: (§3) Safety will be measured by adverse events, laboratory test results, ECGs, vital sign measurements, physical examination findings, and assessment of ECOG performance status score.
(§4) Safety analyses included adverse event assessment graded in severity according to NCI-CTCAE version 4, electrocardiograms, clinical laboratory testing, physical examinations, and vital signs.
(§5) The safety population included patients who received any dose of trial treatment.

[2] = tested on: transplant-ineligible NDMM patients; assay: MAIA subgroup analysis by age (<75 vs >75 y): safety (TEAEs, discontinuations); assay type: in vivo, human
Description: (§1) To examine the impact of age on the efficacy and safety of D-Rd vs Rd in this patient population, a subgroup analysis was conducted within patients <75 and >75 y of age.
(§2) Transplant-ineligible NDMM patients were randomized 1:1 to Rd±DARA; stratification was based on age (<75 vs >75 years), ISS (I, II, III), and region (North America vs Other). In standard Rd dosing, patients received 28-day cycles of lenalidomide 25 mg PO QD on Days 1-21 and dexamethasone 40 mg PO on Days 1, 8, 15 and 22 until progression. A portion of patients received 10 mg lenalidomide and 20 mg dexamethasone at the beginning of the treatment. In the DRd arm, patients received daratumumab (DARZALEX®) 16 mg/kg IV QW for Cycles 1-2, Q2W for Cycles 3-6, and Q4W thereafter until progression. PFS was the primary endpoint.

[3] = tested on: transplant-ineligible newly diagnosed multiple myeloma (NDMM); assay: MAIA subgroup analysis by age (<75 vs ≥75 y): efficacy; assay type: in vivo, human; conditions: for PFS HR (95% CI): DRd vs Rd
Description: as §1, §2

[4] = tested on: patients with newly diagnosed multiple myeloma ineligible for HDC and ASCT; assay: MAIA: safety, adverse events graded by NCI-CTCAE version 4, treatment discontinuations
Description: as §3, §4, §5

[5] = grade 3/4 TEAEs, <75 y patients
[6] = grade 3/4 TEAEs, >75 y patients
[7] = Grade 3 or 4, safety population

With “daratumumab (DARZALEX®) group: daratumumab (DARZALEX®) in combination with lenalidomide and dexamethasone” the “discontinuation of trial treatment due to infections” value [1] was 0.5%, the “rate of any-grade infections” value [1] was 86.3% and the “rate of grade 3 or 4 infections” value [1] was 32.1%. For the same substance, the “discontinuation rate due to infections” value ([2]; <75 y) was 1%, the “discontinued lenalidomide due to TEAEs” value ([2]; <75 y) was 15% and the “discontinued treatment due to TEAEs” value ([2]; <75 y) was 5%. For the same substance, the “discontinuation rate due to infections” value ([2]; >75 y) was 0%, the “discontinued lenalidomide due to TEAEs” value ([2]; >75 y) was 29% and the “discontinued treatment due to TEAEs” value ([2]; >75 y) was 10%. It also gave an anemia [2, 5] of 9%, a leukopenia [2, 5] of 10% and a lymphopenia [2, 5] of 12%. For the same substance, the neutropenia [2, 5] was 43%, the pneumonia [2, 5] was 13% and the anemia [2, 6] was 16%. It also gave a leukopenia [2, 6] of 12%, a lymphopenia [2, 6] of 19% and a neutropenia [2, 6] of 60%. For the same substance, the pneumonia [2, 6] was 15%, the thrombocytopenia [2, 6] was 8% and the “30-mo PFS” value ([3]; <75 y) was 75%. For the same substance, the “MRD-negative rate (10^−5)” value ([3]; <75 y) was 28%, the ORR ([3]; <75 y) was 95% and the “≥CR” value ([3]; <75 y) was 52%. The “≥VGPR” value ([3]; <75 y) was 81%, the “PFS HR (95% CI)” value ([3]; <75 y, listed as D-Rd) was 0.50 and the “PFS HR (95% CI)” value ([3]; <75 y, listed as DRd) was 0.50 (0.35-0.71). For the same substance, the “PFS Median” value ([3]; <75 y, median follow-up 28 months, listed as D-Rd) was “not reached”, the “30-mo PFS” value ([3]; ≥75 y) was 66% and the “MRD-negative rate (10^−5)” value ([3]; ≥75 y) was 19%. For the same substance, the ORR ([3]; ≥75 y) was 90%, the “≥CR” value ([3]; ≥75 y) was 41% and the “≥VGPR” value ([3]; ≥75 y) was 77%. The “PFS HR (95% CI)” value ([3]; ≥75 y, listed as D-Rd) was 0.63, the “PFS HR (95% CI)” value ([3]; ≥75 y, listed as DRd) was 0.63 (0.44-0.92) and the “patients with adverse events leading to discontinuation of trial treatment” value [4] was 7.1%. The “adverse events leading to death” value ([4]; % of patients) was 6.9%, the “invasive second primary malignancies” value ([4]; % of patients) was 3.3% and the “pneumonia as adverse event leading to death” value ([4]; % of patients) was 0.5%. The “pneumonia as serious adverse event” value ([4]; % of patients) was 13.2%, the serious adverse events ([4]; % of patients) was 62.9% and the Any infusion-related reaction ([4]; Any Grade, safety population) was 149 (40.9) number of patients (percent). For the same substance, the Asthenia ([4]; Any Grade, safety population) was 117 (32.1) number of patients (percent), the Back pain ([4]; Any Grade, safety population) was 123 (33.8) number of patients (percent) and the Constipation ([4]; Any Grade, safety population) was 149 (40.9) number of patients (percent). The Diarrhea ([4]; Any Grade, safety population) was 207 (56.9) number of patients (percent), the Fatigue ([4]; Any Grade, safety population) was 147 (40.4) number of patients (percent) and the “Invasive second primary malignancy” value ([4]; Any Grade, safety population) was 12 (3.3) number of patients (percent). The Nausea ([4]; Any Grade, safety population) was 115 (31.6) number of patients (percent), the Peripheral edema ([4]; Any Grade, safety population) was 140 (38.5) number of patients (percent) and the Second primary malignancy ([4]; Any Grade, safety population) was 32 (8.8) number of patients (percent). The anemia ([4]; Any Grade, safety population) was 126 (34.6) number of patients (percent), the leukopenia ([4]; Any Grade, safety population) was 68 (18.7) number of patients (percent) and the lymphopenia ([4]; Any Grade, safety population) was 66 (18.1) number of patients (percent). For the same substance, the pneumonia ([4]; Any Grade, safety population) was 82 (22.5) number of patients (percent), the neutropenia ([4]; Any Grade, safety population (N = 364 vs 365)) was 207 (56.9) number of patients (percent) and the Any infusion-related reaction [4, 7] was 10 (2.7) number of patients (percent). The Asthenia [4, 7] was 16 (4.4) number of patients (percent), the Back pain [4, 7] was 11 (3.0) number of patients (percent) and the Constipation [4, 7] was 6 (1.6) number of patients (percent). For the same substance, the Diarrhea [4, 7] was 24 (6.6) number of patients (percent), the Fatigue [4, 7] was 29 (8.0) number of patients (percent) and the Nausea [4, 7] was 5 (1.4) number of patients (percent). For the same substance, the Peripheral edema [4, 7] was 7 (1.9) number of patients (percent), the anemia [4, 7] was 43 (11.8) number of patients (percent) and the leukopenia [4, 7] was 40 (11.0) number of patients (percent). For the same substance, the lymphopenia [4, 7] was 55 (15.1) number of patients (percent), the neutropenia [4, 7] was 182 (50.0) number of patients (percent) and the pneumonia [4, 7] was 50 (13.7) number of patients (percent). For the same substance, the “treatment discontinued due to adverse events” value ([4]; at clinical cutoff date Sep. 24, 2018) was 7.4%, the anemia ([4]; grade 3/4 adverse events) was 11.8% and the leukopenia ([4]; grade 3/4 adverse events) was 11.0%. It also gave a lymphopenia ([4]; grade 3/4 adverse events) of 15.1%, a neutropenia ([4]; grade 3/4 adverse events) of 50.0% and a pneumonia ([4]; grade 3/4 adverse events) of 13.7%. The “discontinued treatment due to neutropenia” value ([4]; in vivo) was “no patients”, the “invasive second primary malignancies: hematologic malignancies” value ([4]; in vivo) was 0.5% and the “invasive second primary malignancies: solid tumors” value ([4]; in vivo) was 2.7%. For the same substance, the “lenalidomide dose delays, reductions, re-escalations, or skipping (combined) due to treatment-emergent adverse events” value ([4]; in vivo) was 77.5% and the “lenalidomide dose discontinuations due to treatment-emergent adverse events” value ([4]; in vivo) was 20.9%.
